For experiment [1], the target named is human CD3 expressed on cells (Jurkat cells; human T-cells of PBMC) (human) (UniProt P09693). Put plainly: cell-based or functional assay.
Experiment [2] has the same target. Put plainly: FACS titration on Jurkat cells (CD3+ human T-cell line).
In experiment [3] the target is cynomolgus monkey CD3 expressed on monkey T-cells (PBMCs) (cynomolgus monkey) (UniProt Q95LI5). As to the kind of experiment: FACS titration on monkey PBMCs, gated on CD2+CD4+ T cells.
For experiment [4] the target is unchanged. As to the kind of experiment: cell-based or functional assay.

This note sets out measurements from patent US20190127480A1.

By EC50 is commonly meant the concentration needed to bring the measured effect to its halfway point.

human CD3 expressed on cells (Jurkat cells; human T-cells of PBMC) (human), sequence (chain, as listed by the source, chain 1 of 4): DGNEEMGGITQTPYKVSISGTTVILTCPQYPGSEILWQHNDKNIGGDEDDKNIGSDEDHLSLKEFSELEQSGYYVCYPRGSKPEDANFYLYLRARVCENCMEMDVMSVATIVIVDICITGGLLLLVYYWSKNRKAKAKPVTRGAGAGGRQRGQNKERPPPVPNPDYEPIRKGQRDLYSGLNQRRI
human CD3 expressed on cells (Jurkat cells; human T-cells of PBMC) (human), sequence (chain, as listed by the source, chain 2 of 4): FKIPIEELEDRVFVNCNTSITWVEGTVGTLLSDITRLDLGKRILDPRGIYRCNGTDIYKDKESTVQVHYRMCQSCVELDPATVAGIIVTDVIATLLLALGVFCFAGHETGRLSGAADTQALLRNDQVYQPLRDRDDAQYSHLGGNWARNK
human CD3 expressed on cells (Jurkat cells; human T-cells of PBMC) (human), sequence (P09693 23-182, chain 3 of 4): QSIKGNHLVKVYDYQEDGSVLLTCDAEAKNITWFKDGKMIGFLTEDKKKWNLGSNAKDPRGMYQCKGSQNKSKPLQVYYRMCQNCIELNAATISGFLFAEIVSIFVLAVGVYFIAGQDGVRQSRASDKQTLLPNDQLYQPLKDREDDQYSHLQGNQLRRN
human CD3 expressed on cells (Jurkat cells; human T-cells of PBMC) (human), sequence (P20963 22-164, chain 4 of 4): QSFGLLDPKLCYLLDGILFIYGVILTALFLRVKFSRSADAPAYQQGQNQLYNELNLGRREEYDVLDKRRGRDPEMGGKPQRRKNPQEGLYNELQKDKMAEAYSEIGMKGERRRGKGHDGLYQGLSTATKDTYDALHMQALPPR
cynomolgus monkey CD3 expressed on monkey T-cells (PBMCs) (cynomolgus monkey), sequence (Q95LI5 22-198, chain 1 of 2): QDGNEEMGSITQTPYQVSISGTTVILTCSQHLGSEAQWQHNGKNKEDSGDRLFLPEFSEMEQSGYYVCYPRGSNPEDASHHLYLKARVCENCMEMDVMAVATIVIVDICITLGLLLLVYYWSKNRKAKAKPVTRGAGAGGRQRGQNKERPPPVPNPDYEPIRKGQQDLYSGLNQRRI
cynomolgus monkey CD3 expressed on monkey T-cells (PBMCs) (cynomolgus monkey), sequence (Q95LI8 22-171, chain 2 of 2, further chain): as the sequence (chain, as listed by the source, chain 2 of 4) above, with I5V, N15K, I20V, S32T, D33N, I34N, T64A, S74N, V83L, H141R counted along it

Turning to “Isotype Ctrl (irrelevant isotype matched antibody, human Fc mAb tables)”, in experiment [1], the U937 Cytotoxicity Human T-cells amounted to 0 pM.
Substance “OKT-3, mouse monoclonal antibody against human T-cell surface antigens (ATCC CRL-8001)” returned a concentration giving a half-maximal response (EC50) in experiment [2] of 0.196 nM. In addition, in experiment [1], the EC50 [M] hPBMC Proliferation turned out to be 3.3e-13 M and the U937 Cytotoxicity Human T-cells is 2.35 pM.
For the substance “SP34, commercially available mouse monoclonal antibody reactive against the epsilon chain of the T3 complex on human T lymphocyte cells”, the EC50 in experiment [3] stood at 0.0703 nM. This substance registered an EC50 [M] mfPBMC Proliferation in experiment [4] of 1.71e-12 M.
For the substance “Isotype Ctrl (irrelevant isotype matched antibody, monovalent 1-arm mAb tables)”, in experiment [1], the U937 Cytotoxicity Human T-cells was 0 pM.
Consider “Isotype Ctrl (irrelevant isotype matched antibody, hybridoma mAb table)”, for which the U937 Cytotoxicity Human T-cells in experiment [1] stood at 0 pM.
